Results taken from patent US20230399394A1 (SUNSHINE GUOJIAN PHARMACEUTICAL SHANGHAI, published 2023).

T1: Human IL-33-his (human, UniProt O95760 112-270, biotinylated with EZ-Link NHS-Biotin where used as IL-33-his-biotin)
T1 sequence: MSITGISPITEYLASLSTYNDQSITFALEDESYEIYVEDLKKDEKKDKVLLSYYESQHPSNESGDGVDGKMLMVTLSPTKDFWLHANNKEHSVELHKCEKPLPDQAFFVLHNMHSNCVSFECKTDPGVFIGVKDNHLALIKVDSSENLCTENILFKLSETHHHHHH

T2: IL-33 protein without any mutation (WT) (human, UniProt O95760 112-270)
T2 construct: Control of the alanine scan (four runs WT-1 to WT-4); also called WT-1; WT-2
T2 sequence: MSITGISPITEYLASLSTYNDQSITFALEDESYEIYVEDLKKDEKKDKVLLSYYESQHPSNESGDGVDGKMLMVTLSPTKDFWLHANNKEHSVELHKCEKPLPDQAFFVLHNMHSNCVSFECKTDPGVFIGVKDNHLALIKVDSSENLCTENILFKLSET

T3: IL-33 mutant protein K46A (human, UniProt O95760 112-270)
T3 construct: Prokaryotic expression
T3 chain: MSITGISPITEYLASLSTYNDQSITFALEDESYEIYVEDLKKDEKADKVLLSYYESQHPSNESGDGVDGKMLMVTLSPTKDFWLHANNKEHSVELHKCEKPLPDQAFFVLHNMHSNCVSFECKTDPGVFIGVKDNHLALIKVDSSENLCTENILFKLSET

T4: IL-33 mutant protein L51A (human, UniProt O95760 112-270)
T4 construct: Prokaryotic expression
T4 chain: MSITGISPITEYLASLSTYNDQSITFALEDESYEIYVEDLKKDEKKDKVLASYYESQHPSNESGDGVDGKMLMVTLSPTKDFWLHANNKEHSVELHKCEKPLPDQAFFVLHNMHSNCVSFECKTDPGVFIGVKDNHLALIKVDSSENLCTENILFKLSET

T5: IL-33 mutant protein P59A (human, UniProt O95760 112-270)
T5 construct: Prokaryotic expression
T5 chain: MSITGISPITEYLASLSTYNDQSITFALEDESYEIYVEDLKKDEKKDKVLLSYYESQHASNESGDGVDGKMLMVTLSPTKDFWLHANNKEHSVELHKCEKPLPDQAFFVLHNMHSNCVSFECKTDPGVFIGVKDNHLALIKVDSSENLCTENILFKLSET

T6: IL-33 mutant protein H58A (human, UniProt O95760 112-270)
T6 construct: Prokaryotic expression
T6 chain: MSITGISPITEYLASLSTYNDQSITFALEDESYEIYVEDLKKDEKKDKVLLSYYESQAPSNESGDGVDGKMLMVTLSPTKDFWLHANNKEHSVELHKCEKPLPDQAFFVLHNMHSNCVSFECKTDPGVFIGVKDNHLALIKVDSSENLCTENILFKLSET

T7: IL-33 mutant protein D65A (human, UniProt O95760 112-270)
T7 construct: Prokaryotic expression
T7 chain: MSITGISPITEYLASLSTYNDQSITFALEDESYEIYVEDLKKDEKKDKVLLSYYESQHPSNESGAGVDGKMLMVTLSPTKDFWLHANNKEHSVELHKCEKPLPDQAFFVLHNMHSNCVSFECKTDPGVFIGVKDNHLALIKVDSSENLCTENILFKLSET

T8: IL-33 mutant protein Q57A (human, UniProt O95760 112-270)
T8 construct: Prokaryotic expression
T8 chain: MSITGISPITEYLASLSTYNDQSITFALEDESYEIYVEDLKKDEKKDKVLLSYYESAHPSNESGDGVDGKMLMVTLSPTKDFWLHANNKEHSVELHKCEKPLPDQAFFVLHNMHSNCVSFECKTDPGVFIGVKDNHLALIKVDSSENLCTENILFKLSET

T9: IL-33 mutant protein E44A (human, UniProt O95760 112-270)
T9 construct: Prokaryotic expression
T9 chain: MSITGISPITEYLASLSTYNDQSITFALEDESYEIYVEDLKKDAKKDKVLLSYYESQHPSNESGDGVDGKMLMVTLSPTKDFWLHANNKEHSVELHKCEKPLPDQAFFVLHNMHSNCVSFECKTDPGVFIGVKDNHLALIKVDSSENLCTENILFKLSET


Legend:
[1] = target: T1, Human IL-33-his; experiment: cell-based or functional assay
[2] = target: T2, IL-33 protein without any mutation (WT); experiment: ELISA as Example 9; row WT-3, the reference itself
Experimental: (§1) SA protein was diluted to 2 μg/mL to coat ELISA plate at 100 μL/well overnight at 4° C. The plate was washed with PBST (PBS containing 0.05% Tween20) for 3 times, and blocked with 2% BSA prepared in PBS at 200 μL/well, at room temperature for 2 h. After the plate was washed twice with PBST, IL-33-his-biotin protein was diluted to 1 μg/mL with 1% BSA prepared in PBST, and was added to ELISA plate at 100 μL/well. The plate was incubated at room temperature for 1 h, and each monoclonal antibody was diluted with 1% BSA prepared in PBST in a 3-fold gradient. The highest concentration of antibody was 10 μg/mL, and the antibody was diluted for 12 gradients. Each diluted monoclonal antibody was added to ELISA wells with 100 μL/well, and the plate was incubated at room temperature for 1 h. Each sample was added to duplicate wells in parallel. The plate was washed with PBST for 3 times, and HRP-anti human IgG Fc secondary antibody prepared with PBST was diluted at an appropriate ratio, and was added to ELISA wells at 100 μL/well. […] Each reaction solution was shaken uniformly and OD450 nm was read on a microplate reader. The data was analyzed and EC₅₀ was calculated.
(§2) Subsequently, according to the experimental method of Example 9, the affinity of the above mutant proteins to 874F7-Hu1 was determined, and IL-33 proteins (WT-1, WT-2, WT-3, and WT-4) without any mutation were set as controls.

[3] = target: T3, IL-33 mutant protein K46A; experiment: ELISA as Example 9; row K46A against WT-1
Experimental: as §1, §2

[4] = target: T4, IL-33 mutant protein L51A; experiment: ELISA as Example 9; row L51A against WT-2
Experimental: as §1, §2

[5] = target: T5, IL-33 mutant protein P59A; experiment: ELISA as Example 9; row P59A against WT-1
Experimental: as §1, §2

[6] = target: T6, IL-33 mutant protein H58A; experiment: ELISA as Example 9; row H58A
Experimental: as §1, §2

[7] = target: T2, IL-33 protein without any mutation (WT); experiment: ELISA as Example 9; row WT-2
Experimental: as §1, §2

[8] = target: T7, IL-33 mutant protein D65A; experiment: ELISA as Example 9; row D65A against WT-3
Experimental: as §1, §2

[9] = target: T8, IL-33 mutant protein Q57A; experiment: ELISA as Example 9; row Q57A
Experimental: as §1, §2

[10] = target: T9, IL-33 mutant protein E44A; experiment: ELISA as Example 9; row E44A
Experimental: as §1, §2

Binder | IC50 of inhibition of IL-33-induced IL-6 expression in HUVEC cells [1] [nM] | IC50 of inhibition of IL-33-induced IL-8 expression in HUVEC cells [1] [nM] | Affinity decline ratio [2] [fold] | Affinity decline ratio [3] [fold] | IC50 of inhibition of IFNγ secretion by NK cells induced by IL-33 [1] [nM] | IC50 of inhibition of IL-5 secretion of KU812 cells induced by IL-33 [1] [nM] | IC50 of inhibition of IL-13 secretion of KU812 cells induced by IL-33 [1] [nM] | IC50 of the inhibitory effect on IL-6 expression in HUVEC cells induced by IL-33 [1] [nM] | IC50 of the inhibitory effect on the IFN-γ secretion of PBMC induced by IL-33 [1] [nM] | Affinity decline ratio [4] [fold] | Affinity decline ratio [5] [fold] | EC50 [6] [nM] | EC50 [7] [nM] | Affinity decline ratio [8] [fold] | EC50 [9] [nM] | EC50 [10] [nM]
874F7 (antibody, V domains shown, Murine hybridoma antibody purified on Protein G; also called murine antibody 874F7) VH: QVQLKESGPGLVAPSHSLSITCNVSGFSLSKYGVHWIRQIPGRGLDWLGVLRAGGSTGYNSALMSRLSISKDSSKSQVFLKMNDLRTDDTAVYFCVRDHYYYSSYGGFVYWGQGTLVTVSA VL: DIQMTQSPASQSASLGESVTITCLASQTIGAWLAWYRQQPGKSPQLLIYAATRLADGVPSRFSGSGSGTEFSFKINNLQAEDFVSYYCQQLDSSPYTFGGGTRLEM | 0.65 | 0.35 | – | – | – | – | – | – | – | – | – | – | – | – | – | –
874F7-Hu1 (antibody, human IgG4 S228P, kappa, also called 874F7-Hul; humanized antibody 874F7-Hu1) heavy: not shown light: DIQMTQSPSSVSASVGDRVTITCLASQTIGAWLAWYQQKPGKSPKLLIYAATRLADGVPSRFSGSGSGTDFTLTISSLQPEDFATYYCQQLDSSPYTFGQGTKVEIKRTVAAPSVFIFPPSDEQLKSGTASVVCLLNNFYPREAKVQWKVDNALQSGNSQESVTEQDSKDSTYSLSSTLTLSKADYEKHKVYACEVTHQGLSSPVTKSFNRGEC | – | – | 1 | 1 | 0.742 | 7.83 | 5.22 | 0.051 | 0.85 | 6.8 | 0.5 | 0.43 | 0.13 | 192 | 0.12 | 0.13
